Patent US20150337049A1 (published 2015)
Numbering of substitutions follows the chain as printed. Read-outs that look alike come from different tables or passages of the source.

B1: bsIgG1 huCD3-H3L1xHER2-LFLEDA (bispecific antibody)
heavy 1: EVKLVESGGGLVKPGRSLRLSCAASGFTFNTYAMNWVRQAPGKGLEWVARIRSKYNNYATYYADSVKDRFTISRDDSKSILYLQMNSLKTEDTAMYYCVRHGNFGNSYVSWFAYWGQGTLVTVSSASTKGPSVFPLAPSSKSTSGGTAALGCLVKDYFPEPVTVSWNSGALTSGVHTFPAVLQSSGLYSLSSVVTVPSSSLGTQTYICNVNHKPSNTKVDKRVEPKSCDKTHTCPPCPAPEFEGGPSVFLFPPKPKDTLMISRTPEVTCVVVAVSHEDPEVKFNWYVDGVEVHNAKTKPREEQYNSTYRVVSVLTVLHQDWLNGKEYKCKVSNKALPAPIEKTISKAKGQPREPQVYTLPPSREEMTKNQVSLTCLVKGFYPSDIAVEWESNGQPENNYKTTPPVLDSDGSFLLYSKLTVDKSRWQQGNVFSCSVMHEALHNHYTQKSLSLSPGK
VL 1: not shown
heavy 2: QVQLVQSGAEVKKPGASVKVSCKASGYTFTNYGISWVRQAPGQGLEWMGWLSAYSGNTIYAQKLQGRVTMTTDTSTTTAYMELRSLRSDDTAVYYCARDRIVVRPDYFDYWGQGTLVTVSSASTKGPSVFPLAPSSKSTSGGTAALGCLVKDYFPEPVTVSWNSGALTSGVHTFPAVLQSSGLYSLSSVVTVPSSSLGTQTYICNVNHKPSNTKVDKRVEPKSCDKTHTCPPCPAPEFEGGPSVFLFPPKPKDTLMISRTPEVTCVVVAVSHEDPEVKFNWYVDGVEVHNAKTKPREEQYNSTYRVVSVLTVLHQDWLNGKEYKCKVSNKALPAPIEKTISKAKGQPREPQVYTLPPSREEMTKNQVSLTCLVKGFYPSDIAVEWESNGQPENNYKTTPPVLDSDGSFFLYSRLTVDKSRWQQGNVFSCSVMHEALHNHYTQKSLSLSPGK
VL 2: EIVLTQSPATLSLSPGERATLSCRASQSVSSYLAWYQQKPGQAPRLLIYDASNRATGIPARFSGSGSGTDFTLTISSLEPEDFAVYYCQQRSNWPRTFGQGTKVEIK
B2: bsIgG1 huCD3-H3L1×HER2-LFLEDA (bispecific antibody)
heavy 1: B1 heavy 1
VL 1: not shown
heavy 2: B1 heavy 2
VL 2: B1 VL 2
B3: IgG1-huCD3-H4L1 (antibody, V domains shown)
VH: EVKLVESGGGLVKPGRSLRLSCAASGFTFNTYAMNWVRQAPGKGLEWVARIRSKYNNYATYYADSVKDRFTISRDDSKSILYLQMNSLKTEDTAMYYCVRHGNFGNSYVSWFAYWGQGTMVTVSS
VL: not shown
B4: IgG1-huCD3-H1L2 (antibody, V domains shown)
VH: B3 VH with K13Q, R16G, I80S, S87N, M120L
VL: QAVVTQEPSFSVSPGGTVTLTCRSSTGAVTTSNYANWVQQTPGQAFRGLIGGTNKRAPGVPARFSGSILGNKAALTITGAQADDESIYFCALWYSNLWVFGGGTKLTVL
B5: IgG1-huCD3-H3L1-LFLEDA (antibody, V domains shown)
VH: B3 VH with M120L
VL: not shown
B6: IgG1-huCD3-H3L1 with LFLEDA mutations (antibody, V domains shown)
VH: B3 VH with M120L
VL: not shown
B7: IgG1-huCD3-H4L1, wild type Fc region (antibody, V domains shown)
VH: B3 VH
VL: not shown
B8: BsIgG1 CD3 x HER2 (bispecific antibody)
chain 1: B3 VH with V5L, K13Q, G15K, R16G, R19K, K78Q, S87N, M120L, S125A
chain 2: QAVVTQESALTTSPGETVTLTCRSSTGAVTTSNYANWVQEKPDHLFTGLIGGTNKRAPGVPARFSGSLIGDKAALTITGAQTEDEAIYFCALWYSNLWVFGGGTKLTVL
chain 3: QVQLVQSGAEVKKPGASVKVSCKASGYTFTNYGISWVRQAPGQGLEWMGWLSAYSGNTIYAQKLQGRVTMTTDTSTTTAYMELRSLRSDDTAVYYCARDRIVVRPDYFDYWGQGTLVTVSS
chain 4: B1 VL 2
B9: IgG1-huCD3-H1L1 (antibody, V domains shown)
VH: B3 VH with K13Q, R16G, I80S, S87N, M120L
VL: not shown
B10: IgG1-huCD3-H3L3 (antibody, V domains shown)
VH: B3 VH with M120L
VL: B4 VL with I87D, F89Y
B11: IgG1-huCD3-H1L3, wild type Fc region (antibody, V domains shown)
VH: B3 VH with K13Q, R16G, I80S, S87N, M120L
VL: B4 VL with I87D, F89Y
B12: IgG1-huCD3-H1L2, wild type Fc region (antibody, V domains shown)
VH: B3 VH with K13Q, R16G, I80S, S87N, M120L
VL: B4 VL
B13: IgG1-huCD3-H3L3, wild type Fc region (antibody, V domains shown)
VH: B3 VH with M120L
VL: B4 VL with I87D, F89Y
B14: IgG1-huCD3-H1L3 (antibody, V domains shown)
VH: B3 VH with K13Q, R16G, I80S, S87N, M120L
VL: B4 VL with I87D, F89Y

Columns and labels:
HSC-F (cynomolgous CD3) [1] = molecular target: T1, HSC-F (cynomolgous CD3) (cynomolgus monkey, UniProt Q95LI8 22-171; Q95LI7 23-181); assay: FACS binding, HSC-F
T1 sequence (Q95LI7 whole entry, looked up, chain 1 of 2): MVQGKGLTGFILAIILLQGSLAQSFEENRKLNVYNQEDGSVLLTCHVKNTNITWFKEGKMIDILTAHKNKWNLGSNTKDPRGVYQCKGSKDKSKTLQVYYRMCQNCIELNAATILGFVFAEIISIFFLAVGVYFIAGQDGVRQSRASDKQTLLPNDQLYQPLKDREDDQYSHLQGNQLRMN
T1 sequence (Q95LI8 whole entry, looked up, chain 2 of 2): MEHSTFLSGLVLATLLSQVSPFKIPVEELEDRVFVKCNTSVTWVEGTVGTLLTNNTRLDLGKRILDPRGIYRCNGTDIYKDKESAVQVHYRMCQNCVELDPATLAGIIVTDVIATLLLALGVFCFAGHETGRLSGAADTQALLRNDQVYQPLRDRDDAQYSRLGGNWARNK

[2] = molecular target: T2, human CD3 on the human T-cell line Jurkat (human, UniProt P09693 23-182; P20963 22-164); assay: FACS binding, Jurkat
T2 sequence (chain, as listed by the source, chain 1 of 4): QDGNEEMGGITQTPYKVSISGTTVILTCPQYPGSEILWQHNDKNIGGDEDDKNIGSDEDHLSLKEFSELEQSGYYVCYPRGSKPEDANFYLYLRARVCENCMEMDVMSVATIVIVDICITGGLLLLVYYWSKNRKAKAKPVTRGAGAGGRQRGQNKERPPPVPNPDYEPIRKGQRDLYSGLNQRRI
T2 sequence (chain, as listed by the source, chain 2 of 4): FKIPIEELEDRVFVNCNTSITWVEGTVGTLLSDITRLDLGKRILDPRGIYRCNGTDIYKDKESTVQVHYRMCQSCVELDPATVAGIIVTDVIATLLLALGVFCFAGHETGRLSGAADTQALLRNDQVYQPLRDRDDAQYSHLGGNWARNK
T2 sequence (P09693 23-182, chain 3 of 4): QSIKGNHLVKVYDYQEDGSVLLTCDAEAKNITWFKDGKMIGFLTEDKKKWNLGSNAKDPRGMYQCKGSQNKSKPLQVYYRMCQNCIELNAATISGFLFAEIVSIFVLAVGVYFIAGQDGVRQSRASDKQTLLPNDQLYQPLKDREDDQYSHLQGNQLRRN
T2 sequence (P20963 22-164, chain 4 of 4): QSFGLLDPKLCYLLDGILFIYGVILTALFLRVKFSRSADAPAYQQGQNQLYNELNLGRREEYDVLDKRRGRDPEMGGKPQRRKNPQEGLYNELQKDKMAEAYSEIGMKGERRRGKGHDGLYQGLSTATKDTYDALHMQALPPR

HSC-F (cynomolgous CD3) [3] = molecular target: T1, HSC-F (cynomolgous CD3); assay: FACS binding, HSC-F; remark: listed apart in the source
[4] = molecular target: T2, human CD3 on the human T-cell line …; assay: FACS binding, Jurkat; remark: listed apart in the source
Jurkat (CD3) = Jurkat (CD3) (human, UniProt P09693 23-182; P20963 22-164); assay: FACS binding, Jurkat
Jurkat (CD3), sequence (chain, as listed by the source, chain 1 of 4): as the sequence (chain, as listed by the source, chain 1 of 4) above
Jurkat (CD3), sequence (chain, as listed by the source, chain 2 of 4): as the sequence (chain, as listed by the source, chain 2 of 4) above
Jurkat (CD3), sequence (P09693 23-182, chain 3 of 4): as the sequence (P09693 23-182, chain 3 of 4) above
Jurkat (CD3), sequence (P20963 22-164, chain 4 of 4): as the sequence (P20963 22-164, chain 4 of 4) above

| Binder | EC50 (HSC-F (cynomolgous CD3) [3]) [µg/mL] | EC50 [4] [µg/mL] | further results |
| --- | --- | --- | --- |
| B1 |  |  | EC50 (HSC-F (cynomolgous CD3) [1]): 3.54 µg/mL |
| B2 |  |  | EC50 [2]: 0.28 µg/mL |
| B3 | 0.26 |  |  |
| B4 | 0.31 |  |  |
| B5 | 0.19 |  | EC50 (HSC-F (cynomolgous CD3) [1]): 0.3 µg/mL |
| B6 |  | 0.04 | EC50 [2]: 0.04 µg/mL |
| B7 |  | 0.05 |  |
| B8 |  |  | EC50 (Jurkat (CD3)): 0.68 µg/mL |
| B9 | 0.37 |  |  |
| B10 | 0.11 |  |  |
| B11 |  | 0.06 |  |
| B12 |  | 0.08 |  |
| B13 |  | 0.02 |  |
| B14 | 0.28 |  |  |
